Measurements published in publication PMC9108885 (The Journal of Biological Chemistry, 2022).

Biological target: human α-synuclein (human, UniProt P37840 1-140, biotin (for BLI, sites not stated); 15N-labelled (for NMR))
Assay: BLI

B1: mouse nicotinamide mononucleotide adenylyltransferase 3 (enzyme)
chain: MKNRIPVVLLACGSFNPITNMHLRLFEVARDHLHQTGRYQVIEGIISPVNDSYGKKDLVASHHRVAMARLALQTSDWIRVDPWESEQAQWMETVKVLRHHHRELLRSSAQMDGPDPSKTPSASAALPELKLLCGADVLKTFQTPNLWKDTHIQEIVEKFGLVCVSRSGHDPERYISDSPILQQFQHNIHLAREPVLNEISATYVRKALGQGQSVKYLLPEAVITYIRDQGLYINDGSWKGKGKTG
- Kd: 1.9 ± 0.03 µM
